According to PMC3781060:

B1: GST fusion protein of the Receptor Binding Domain of α2-macroglobulin (RBD) (domain or fragment)
chain: GAATFTRTGKAAQVTIQSSGTFSSKFQVDNNNRLLLQQVSLPELPGEYSMKVTGEGCVYLQTSLKYNILPEKEEFPFALGVQTLPQTCDEPKAHTSFQISLSVSYTGSRSASNMAIVDVKMVSGFIPLKPTVKMLERSNHVSRTEVSSNHVLIYLDKVSNQTLSLFFTVLQDVPVRDLKPAIVKVYDYYETDEFAIAEYNAPCSKDLGNA

Key:
[1] = biological target: low-density lipoprotein (LDL) receptor-related protein-1 (LRP1) (rat (endogenous in PC12 cells and primary DRG neurons)) (UniProt G3V928)
[2] = biological target: low-density lipoprotein (LDL) receptor-related protein-1 (LRP1) (rat (endogenous in PC12 cells and primary DRG neurons)) (UniProt G3V928); remark: listed apart in the source

UniProt G3V928, sequence (G3V928 20-4545): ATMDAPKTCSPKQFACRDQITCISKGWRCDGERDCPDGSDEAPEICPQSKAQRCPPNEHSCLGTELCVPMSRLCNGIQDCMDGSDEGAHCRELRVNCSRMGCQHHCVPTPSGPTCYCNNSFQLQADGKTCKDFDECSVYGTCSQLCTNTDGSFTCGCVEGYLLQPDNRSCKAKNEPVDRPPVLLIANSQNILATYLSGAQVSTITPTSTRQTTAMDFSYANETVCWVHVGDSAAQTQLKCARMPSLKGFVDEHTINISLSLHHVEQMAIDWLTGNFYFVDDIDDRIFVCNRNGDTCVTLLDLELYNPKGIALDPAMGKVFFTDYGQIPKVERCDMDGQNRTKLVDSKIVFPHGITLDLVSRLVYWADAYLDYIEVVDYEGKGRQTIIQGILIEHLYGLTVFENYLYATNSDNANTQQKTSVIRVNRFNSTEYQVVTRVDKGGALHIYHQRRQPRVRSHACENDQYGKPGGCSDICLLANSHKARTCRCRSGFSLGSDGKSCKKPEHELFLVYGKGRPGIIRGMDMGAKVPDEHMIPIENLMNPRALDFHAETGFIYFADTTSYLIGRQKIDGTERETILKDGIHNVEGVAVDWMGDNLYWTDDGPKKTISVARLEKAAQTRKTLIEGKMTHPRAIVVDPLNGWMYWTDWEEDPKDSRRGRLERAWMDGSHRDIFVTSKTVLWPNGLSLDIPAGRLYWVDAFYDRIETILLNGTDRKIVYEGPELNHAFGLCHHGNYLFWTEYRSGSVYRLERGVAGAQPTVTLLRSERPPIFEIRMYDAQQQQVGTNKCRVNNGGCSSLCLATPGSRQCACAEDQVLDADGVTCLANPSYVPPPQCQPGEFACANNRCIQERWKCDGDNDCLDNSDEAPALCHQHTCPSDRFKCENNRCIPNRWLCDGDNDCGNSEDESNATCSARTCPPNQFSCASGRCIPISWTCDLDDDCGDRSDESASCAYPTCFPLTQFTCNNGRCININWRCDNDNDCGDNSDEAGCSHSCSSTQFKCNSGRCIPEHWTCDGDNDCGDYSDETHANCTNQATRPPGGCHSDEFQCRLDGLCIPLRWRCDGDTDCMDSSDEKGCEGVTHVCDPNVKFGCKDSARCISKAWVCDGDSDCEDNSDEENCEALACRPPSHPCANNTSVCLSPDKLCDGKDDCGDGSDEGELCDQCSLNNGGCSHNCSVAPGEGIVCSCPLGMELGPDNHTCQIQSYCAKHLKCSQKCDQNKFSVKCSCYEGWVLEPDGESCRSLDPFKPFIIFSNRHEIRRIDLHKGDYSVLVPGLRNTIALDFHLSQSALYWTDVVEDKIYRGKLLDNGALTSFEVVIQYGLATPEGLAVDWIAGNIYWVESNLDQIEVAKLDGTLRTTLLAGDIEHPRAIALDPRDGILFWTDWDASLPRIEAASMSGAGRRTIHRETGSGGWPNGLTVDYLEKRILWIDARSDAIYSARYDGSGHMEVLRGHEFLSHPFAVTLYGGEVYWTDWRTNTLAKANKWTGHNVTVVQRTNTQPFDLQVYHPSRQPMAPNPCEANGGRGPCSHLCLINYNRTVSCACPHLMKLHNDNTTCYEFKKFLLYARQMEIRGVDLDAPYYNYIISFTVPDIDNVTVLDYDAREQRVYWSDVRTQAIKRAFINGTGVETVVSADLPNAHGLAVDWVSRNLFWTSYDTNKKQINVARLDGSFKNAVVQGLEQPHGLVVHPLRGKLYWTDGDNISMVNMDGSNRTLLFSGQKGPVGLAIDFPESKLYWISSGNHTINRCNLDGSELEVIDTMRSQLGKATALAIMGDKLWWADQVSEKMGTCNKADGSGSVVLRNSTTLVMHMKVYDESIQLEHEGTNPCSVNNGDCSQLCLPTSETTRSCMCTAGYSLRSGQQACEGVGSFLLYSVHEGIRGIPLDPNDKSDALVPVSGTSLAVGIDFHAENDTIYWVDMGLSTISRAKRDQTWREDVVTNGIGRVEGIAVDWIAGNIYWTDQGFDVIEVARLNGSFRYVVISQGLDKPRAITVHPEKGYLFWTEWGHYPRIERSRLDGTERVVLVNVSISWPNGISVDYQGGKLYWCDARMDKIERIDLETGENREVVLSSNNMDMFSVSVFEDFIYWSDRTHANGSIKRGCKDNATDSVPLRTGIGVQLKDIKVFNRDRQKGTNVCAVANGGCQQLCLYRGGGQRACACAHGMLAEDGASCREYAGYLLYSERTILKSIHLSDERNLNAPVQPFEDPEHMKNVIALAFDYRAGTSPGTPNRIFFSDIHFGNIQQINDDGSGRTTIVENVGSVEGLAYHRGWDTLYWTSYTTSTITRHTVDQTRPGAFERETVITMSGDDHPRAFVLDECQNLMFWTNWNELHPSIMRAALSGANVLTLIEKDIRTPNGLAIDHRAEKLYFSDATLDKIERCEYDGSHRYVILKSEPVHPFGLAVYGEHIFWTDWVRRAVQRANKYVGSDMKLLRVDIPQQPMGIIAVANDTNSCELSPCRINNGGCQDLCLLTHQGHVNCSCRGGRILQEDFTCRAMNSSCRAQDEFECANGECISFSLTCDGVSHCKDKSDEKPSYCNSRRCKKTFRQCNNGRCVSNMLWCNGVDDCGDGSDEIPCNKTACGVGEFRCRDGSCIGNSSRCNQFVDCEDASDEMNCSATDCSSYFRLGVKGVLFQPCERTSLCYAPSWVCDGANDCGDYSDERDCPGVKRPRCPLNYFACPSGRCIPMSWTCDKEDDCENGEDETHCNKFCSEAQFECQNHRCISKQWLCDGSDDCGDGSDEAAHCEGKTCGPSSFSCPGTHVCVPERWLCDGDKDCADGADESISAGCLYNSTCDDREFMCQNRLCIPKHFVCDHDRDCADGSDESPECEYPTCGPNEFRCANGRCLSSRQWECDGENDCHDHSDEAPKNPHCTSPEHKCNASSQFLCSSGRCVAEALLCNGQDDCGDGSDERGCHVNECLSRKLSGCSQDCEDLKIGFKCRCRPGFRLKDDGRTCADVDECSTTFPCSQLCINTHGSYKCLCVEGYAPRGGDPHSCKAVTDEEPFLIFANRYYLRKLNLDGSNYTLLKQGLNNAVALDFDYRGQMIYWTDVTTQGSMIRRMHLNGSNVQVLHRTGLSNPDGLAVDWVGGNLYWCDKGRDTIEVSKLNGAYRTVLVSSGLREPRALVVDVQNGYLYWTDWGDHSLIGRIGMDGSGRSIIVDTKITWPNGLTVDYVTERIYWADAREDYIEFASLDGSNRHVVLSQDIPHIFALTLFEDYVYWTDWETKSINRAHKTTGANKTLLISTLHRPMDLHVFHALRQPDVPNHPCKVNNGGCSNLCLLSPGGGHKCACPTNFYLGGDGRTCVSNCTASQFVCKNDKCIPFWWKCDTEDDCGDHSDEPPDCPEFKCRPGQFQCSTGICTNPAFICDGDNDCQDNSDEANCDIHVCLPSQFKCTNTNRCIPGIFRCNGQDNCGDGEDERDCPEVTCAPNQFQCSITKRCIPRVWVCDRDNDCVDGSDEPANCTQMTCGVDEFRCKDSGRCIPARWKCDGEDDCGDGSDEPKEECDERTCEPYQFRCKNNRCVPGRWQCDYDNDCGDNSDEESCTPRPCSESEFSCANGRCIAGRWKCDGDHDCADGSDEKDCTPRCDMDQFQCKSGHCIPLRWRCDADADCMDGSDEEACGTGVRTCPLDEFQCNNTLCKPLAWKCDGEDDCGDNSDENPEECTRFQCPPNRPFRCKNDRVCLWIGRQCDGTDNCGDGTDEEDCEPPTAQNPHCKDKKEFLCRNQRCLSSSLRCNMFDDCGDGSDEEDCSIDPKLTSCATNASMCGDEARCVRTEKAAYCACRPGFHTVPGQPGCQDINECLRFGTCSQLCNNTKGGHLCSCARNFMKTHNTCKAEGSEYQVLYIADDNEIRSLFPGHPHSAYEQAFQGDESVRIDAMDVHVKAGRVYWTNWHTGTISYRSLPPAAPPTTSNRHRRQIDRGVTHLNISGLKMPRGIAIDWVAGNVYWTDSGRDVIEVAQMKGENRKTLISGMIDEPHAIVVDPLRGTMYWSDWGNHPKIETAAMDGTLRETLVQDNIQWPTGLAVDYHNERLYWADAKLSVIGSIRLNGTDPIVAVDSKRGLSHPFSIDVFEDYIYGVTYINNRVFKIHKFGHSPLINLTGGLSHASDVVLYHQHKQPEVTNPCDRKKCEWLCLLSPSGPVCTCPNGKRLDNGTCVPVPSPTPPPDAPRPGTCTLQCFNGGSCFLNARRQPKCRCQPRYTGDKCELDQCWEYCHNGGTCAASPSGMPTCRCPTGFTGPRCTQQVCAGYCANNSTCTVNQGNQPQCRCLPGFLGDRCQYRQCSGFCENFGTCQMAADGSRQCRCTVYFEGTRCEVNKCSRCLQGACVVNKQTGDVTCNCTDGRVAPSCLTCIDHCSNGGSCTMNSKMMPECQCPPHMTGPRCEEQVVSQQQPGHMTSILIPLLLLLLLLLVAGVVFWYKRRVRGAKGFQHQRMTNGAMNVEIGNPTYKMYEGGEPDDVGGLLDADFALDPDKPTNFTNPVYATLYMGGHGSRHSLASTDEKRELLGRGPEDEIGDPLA

Molecule | neurite outgrowth of primary embryonic sensory neurons cultured for 2 weeks with MMP-9-PEX (100 nM), quantified as GAP-43 mRNA compared to GST [1] [fold] | neurite outgrowth of primary embryonic sensory neurons cultured for 2 weeks with RBD, compared to GST controls [2] [fold]
GST fusion protein of the hemopexin domain of matrix metalloprotease-9 (MMP-9-PEX) (domain or fragment) | 15 | –
B1 | – | > 40
